Results on 1 molecule are retold here after patent US8119594B1, “Method of modulating integrin mediated cellular activity and agents useful for same” (Inter-K Pty Limited, priority 1999, dated 2012).

For this assay, the system named is β6-bound ERK. The assay can be described thus: β6 immunoprecipitation and ERK Western blot in transfected SW480 cells. The format is cell-based, human. The conditions noted are these: SW480 transfectants; mAb R6G9 immunoprecipitates probed with E10; FIG. 27(B). The text has this:
Construction of the β6 Δ746-764 (SEQ ID NO. 19) deletion mutant in the vector pcDNA1neo and failure of the expressed receptor to localise to focal adhesions in Chinese hamster ovary cells has been reported (Cone et al, 1994).
Equal protein loads of cell lysates prepared from SW480 cells were immunoprecipitated with either anti-β6 monoclonal antibody (mAb R6G9) or matched isotype control antibody.
(Immunoblotting shows a protein as a band on a membrane.)

B1: β6 Δ746-764 deletion mutant: β6 subunit expressed from a deletion construct lacking the coding sequence for … (protein)
chain: WLCLGGAETCEDCLLIGPQCAWCAQENFTHPSGVGERCDTPANLLAKGCQLNFIENPVSQVEILKNKPLSVGRQKNSSDIVQIAPQSLILKLRPGGAQTLQVHVRQTEDYPVDLYYLMDLSASMDDDLNTIKELGSGLSKEMSKLTSNFRLGFGSFVEKPVSPFVKTTPEEIANPCSSIPYFCLPTFGFKHILPLTNDAERFNEIVKNQKISANIDTPEGGFDAIMQAAVCKEKIGWRNDSLHLLVFVSDADSHFGMDSKLAGIVIPNDGLCHLDSKNEYSMSTVLEYPTIGQLIDKLVQNNVLLIFAVTQEQVHLYENYAKLIPGATVGLLQKDSGNILQLIISAYEELRSEVELEVLGDTEGLNLSFTAICNNGTLFQHQKKCSHMKVGDTASFSVTVNIPHCERRSRHIIIKPVGLGDALELLVSPECNCDCQKEVEVNSSKCHHGNGSFQCGVCACHPGHMGPRCECGEDMLSTDSCKEAPDHPSCSGRGDCYCGQCICHLSPYGNIYGPYCQCDNFSCVRHKGLLCGGNGDCDCGECVCRSGWTGEYCNCTTSTDSCVSEDGVLCSGRGDCVCGKCVCTNPGASGPTCERCPTCGDPCNSKRSCIECHLSAAGQAGEECVDKCKLAGATISEEEDFSKDGSVSCSLQGENECLITFLITTDNEGKTIIHSINEKDCPKPPNIPMIMLGVSLATLLIGVVLLCIWKLLVSFHDRKEVAKFSTSTFKNVTYKHREKQKVDLSTDC
Consider B1, for which the “reduction of β6-bound ERK relative to wild type receptor” value is recorded as more than 75%.
